From paper PMC3695512, “Recognition of two distinct elements in the RNA substrate by the RNA-binding domain of the T. thermophilus DEAD box helicase Hera”

Tests used:
Hera_RBD [1] = target: T1, Hera_RBD (Thermus thermophilus, UniProt O07897 424-510); assay: NMR; Kd1, RBD core resonances (424-493); Anisotropy: 50 mM Tris/HCl pH 7.5, 150 mM NaCl, 5 mM MgCl2 (Fig 2), 25 C, 50 nM RNA; EMSA: same Tris/NaCl, 12% glycerol, 25 C; NMR: 25 mM Bis-Tris/HCl pH 6.0, 50 mM NaCl, 10% D2O, 37 C; conditions: protein: recombinant; hairpin with 5' single strand
T1 sequence: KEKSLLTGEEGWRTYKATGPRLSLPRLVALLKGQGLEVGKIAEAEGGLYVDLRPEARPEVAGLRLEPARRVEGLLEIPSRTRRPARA

Hera_RBD [2] = target: T1, Hera_RBD; assay: NMR; pH 6.0, 50 mM NaCl, 37 C; Anisotropy: 50 mM Tris/HCl pH 7.5, 150 mM NaCl, 5 mM MgCl2 (Fig 2), 25 C, 50 nM RNA; EMSA: same Tris/NaCl, 12% glycerol, 25 C; NMR: 25 mM Bis-Tris/HCl pH 6.0, 50 mM NaCl, 10% D2O, 37 C; conditions: protein: recombinant
Hera_RBD [3] = target: T1, Hera_RBD; assay: fluorescence anisotropy; Anisotropy: 50 mM Tris/HCl pH 7.5, 150 mM NaCl, 5 mM MgCl2 (Fig 2), 25 C, 50 nM RNA; EMSA: same Tris/NaCl, 12% glycerol, 25 C; NMR: 25 mM Bis-Tris/HCl pH 6.0, 50 mM NaCl, 10% D2O, 37 C; conditions: protein: recombinant; label: 5'-fluorescein
Hera_RBD_dC-tail = target: T2, Hera_RBD_dC-tail (Thermus thermophilus, UniProt O07897 424-491, del492-510); assay: as above; conditions: protein: recombinant; label: 5'-fluorescein
T2 sequence: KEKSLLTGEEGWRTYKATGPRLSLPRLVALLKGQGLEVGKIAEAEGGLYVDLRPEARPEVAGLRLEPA

Hera_RBD [4] = target: T1, Hera_RBD; assay: NMR; core CSPs, none in C-tail; Anisotropy: 50 mM Tris/HCl pH 7.5, 150 mM NaCl, 5 mM MgCl2 (Fig 2), 25 C, 50 nM RNA; EMSA: same Tris/NaCl, 12% glycerol, 25 C; NMR: 25 mM Bis-Tris/HCl pH 6.0, 50 mM NaCl, 10% D2O, 37 C; conditions: protein: recombinant
Hera_RBD [5] = target: T1, Hera_RBD; assay: ITC; 5 mM Mg2+; estimate, no initial baseline; Anisotropy: 50 mM Tris/HCl pH 7.5, 150 mM NaCl, 5 mM MgCl2 (Fig 2), 25 C, 50 nM RNA; EMSA: same Tris/NaCl, 12% glycerol, 25 C; NMR: 25 mM Bis-Tris/HCl pH 6.0, 50 mM NaCl, 10% D2O, 37 C; conditions: protein: recombinant; label: none (NMR, ITC); 5'-fluorescein (EMSA); hairpin with 5' single strand
GST-Hera_RBD = target: T3, GST-Hera_RBD (Thermus thermophilus, UniProt O07897 424-510); assay: EMSA; 6 uM RNA; 12% glycerol; Anisotropy: 50 mM Tris/HCl pH 7.5, 150 mM NaCl, 5 mM MgCl2 (Fig 2), 25 C, 50 nM RNA; EMSA: same Tris/NaCl, 12% glycerol, 25 C; NMR: 25 mM Bis-Tris/HCl pH 6.0, 50 mM NaCl, 10% D2O, 37 C; conditions: protein: recombinant; tags: N-terminal GST; label: none (NMR, ITC); 5'-fluorescein (EMSA); hairpin with 5' single strand
T3 sequence: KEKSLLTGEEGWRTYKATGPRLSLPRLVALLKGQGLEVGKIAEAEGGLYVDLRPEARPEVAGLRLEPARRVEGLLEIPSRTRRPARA

Hera_RBD [6] = target: T1, Hera_RBD; assay: NMR; CSP pattern similar to 21mer; Anisotropy: 50 mM Tris/HCl pH 7.5, 150 mM NaCl, 5 mM MgCl2 (Fig 2), 25 C, 50 nM RNA; EMSA: same Tris/NaCl, 12% glycerol, 25 C; NMR: 25 mM Bis-Tris/HCl pH 6.0, 50 mM NaCl, 10% D2O, 37 C; conditions: protein: recombinant; hairpin with 5' single strand
Hera full-length = target: T4, Hera full-length (Thermus thermophilus, UniProt O07897 1-510); assay: fluorescence anisotropy; 1 uM Hera; complex forms instantaneously; Anisotropy: 50 mM Tris/HCl pH 7.5, 150 mM NaCl, 5 mM MgCl2 (Fig 2), 25 C, 50 nM RNA; EMSA: same Tris/NaCl, 12% glycerol, 25 C; NMR: 25 mM Bis-Tris/HCl pH 6.0, 50 mM NaCl, 10% D2O, 37 C; conditions: protein: recombinant; chain copies: 2; label: 3'-fluorescein on 9mer; 9 bp duplex (strand 1 nt 3-11) plus 3' hairpin; 5' overhang 2 nt
T4 sequence: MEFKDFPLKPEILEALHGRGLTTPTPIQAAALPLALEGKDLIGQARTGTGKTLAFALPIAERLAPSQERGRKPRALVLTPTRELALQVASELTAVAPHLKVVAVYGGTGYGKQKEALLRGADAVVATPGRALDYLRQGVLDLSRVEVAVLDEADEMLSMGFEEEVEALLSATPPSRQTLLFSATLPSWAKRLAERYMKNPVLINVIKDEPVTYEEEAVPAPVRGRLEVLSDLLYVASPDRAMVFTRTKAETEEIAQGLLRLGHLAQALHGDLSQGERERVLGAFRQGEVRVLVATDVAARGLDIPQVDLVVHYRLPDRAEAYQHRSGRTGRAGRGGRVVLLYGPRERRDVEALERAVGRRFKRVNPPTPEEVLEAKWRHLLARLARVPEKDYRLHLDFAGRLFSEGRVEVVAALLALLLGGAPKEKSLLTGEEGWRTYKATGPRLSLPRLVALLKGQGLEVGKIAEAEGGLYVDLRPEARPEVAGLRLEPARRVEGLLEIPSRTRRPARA

CACUUGGGCUGUUCGCCCAUU (structured_RNA) [21mer_mod]
Kd (Hera_RBD [1]): ~52.9 µM

GUUGGGCUGUUCGCCCAUU (structured_RNA) [19mer]
Kd (Hera_RBD [2]; hairpin): ~75 µM

GGGC (ssRNA) [4mer]
Kd (Hera_RBD [3]): 11 µM
Kd (Hera_RBD_dC-tail): 8 µM

GGGCC (ssRNA) [5mer]
binding result (Hera_RBD [4]): binds

GGGUUGGGCUGUUCGCCCAUU (structured_RNA) [21mer]
Kd (Hera_RBD [2]; label: none (NMR, ITC), 5'-fluorescein (EMSA), hairpin with 5' single strand): ~6 µM
Kd (Hera_RBD [5]): ~40 µM
Kd (GST-Hera_RBD): ~23 µM

GGGUUGGGCUAUUCGCCCAUU (structured_RNA) [21mer_modloop]
binding result (Hera_RBD [6]): binds

B1: 32/9mer (mixed)
RNA 1: GCAGGUCCCAAGGGUUGGGCUGUUCGCCCAUU
RNA 2: UUGGGACCU
binding result (Hera full-length): binds
